Source: US10654939 (BEIJING MABWORKS BIOTECH, dated 2020)

T1: rhesus CD40 expressed on HEK293A cells (rhesus monkey, UniProt P25942 21-277 (human entry))
T1 construct: also called HEK293A/rhesusCD40
T1 chain: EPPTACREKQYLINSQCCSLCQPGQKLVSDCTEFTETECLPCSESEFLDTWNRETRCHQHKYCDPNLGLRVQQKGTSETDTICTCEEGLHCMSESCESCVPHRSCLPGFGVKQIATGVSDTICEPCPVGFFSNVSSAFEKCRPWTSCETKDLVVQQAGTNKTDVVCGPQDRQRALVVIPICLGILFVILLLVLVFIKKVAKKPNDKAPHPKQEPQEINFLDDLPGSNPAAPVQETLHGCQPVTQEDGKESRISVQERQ

T2: recombinant rhesus CD40 (ECD)-hFc (rhesus monkey, UniProt P25942 21-193 (human entry))
T2 construct: Bought protein; also called rhCD40(ECd)-hFc; monkey CD40 (ECD)-hFc
T2 chain: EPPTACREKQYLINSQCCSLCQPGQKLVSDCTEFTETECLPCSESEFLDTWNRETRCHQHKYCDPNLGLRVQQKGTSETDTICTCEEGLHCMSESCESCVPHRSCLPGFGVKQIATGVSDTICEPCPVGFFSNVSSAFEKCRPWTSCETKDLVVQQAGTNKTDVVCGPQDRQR

B1: 77D9 (mouse monoclonal antibody) (antibody, V domains shown)
VH: QVKLEESGGGLVKPGGSLKLSCAASGFTFRNYAMSWVRQSPGERLEWVAEVSGSGYYTYYPDTVTGRFTISRDNANNTLYLEVSSLRSEDTAMYYCTSRAYWGQGTLVTVSA
VL: IVMTQSPTLSLPVSLGDQASISCRSSQSIVLTNGNTYLEWYLQRPGQSPKLLIYKVSNRFSGVPDRFSGSGSGTDFTLKISRVEAEDLGVYYCFQGSHVPYTFGGGTKLEIK
B2: 7B4 (mouse monoclonal antibody) (antibody, V domains shown)
VH: EVQLQESGPGLVKPSQSLSLTCSVTGYSITTNYYWNWIRQFPGNKLEWMGYIKYDGSNNYNPSLKNRISITRDTSKNQFFLKLNSVTTEDTATYYCARLDYWGQGTSVTVSS
VL: DIVLTQSPLSLPVSLGDQASISCRSSQSLENSNGNTFLNWFLQKPGQSPQLLIYKVSNRFSGVLDRFSGTGSGTDFTLTISRVEAEDLGVYFCLQVTHVPFTFGSGTKLEIK
B3: 92F6 (mouse monoclonal antibody) (antibody, V domains shown)
VH: QVQLEQSGAEVVKPGASVKVSCTASGFNIKDTYMHWVKQRPEQGLEWIGRIDPANGNTNYDPKFQGKATITADTSSNTGYLQLSSLTSEDTAVYYCSRWGYDWYFDVWGAGTSVTVSS
VL: DIVITQSTAIMSASPGEKVTITCSASSSVSYIHWFQQKPGTSPKLWIYTTANLASGVPARFSGSGSGTSYSLTISRMEAEDAATYYCQQRSNYPFTFGSGTKLEIK
B4: 50F6 (mouse monoclonal antibody) (antibody, V domains shown)
VH: QVQLEQSGDDLVKPGASVKLSCKASGYTFTTYWINWIKQRPGQGLEWIGRISPGSGSTHYNEMFKGKATLTVDTSSSTAYIQLSSLSSEDSAVYFCTRNDYWGQGTTLTVSS
VL: DIVLTQSPLSLPVSLGDQASISCRSSQSIVNSNGNTYLEWYLQKPGQSPKLLIYKVSNRFSGVPDRFSGSGSGTDFTLKISRVEAEDLGVYYCFQGSHVPLTFGAGTKLELK
B5: 29A10 (mouse monoclonal antibody) (antibody, V domains shown)
VH: QVKLEQSGGGLVKPGGSLKLSCAASGFTFSHYYMYWVRQTPEKRLEWVATISDAGSYTYYSDSVKGRFTISRDNAKNNLYLQMSSLKSDDTAMYFCARTYYRGDGGYWFFDVWGAGTAVTVSS
VL: DIVITQSTSSLAVSVGEKVTMSCESSQSLLYSSNQKNYLAWYQQKPGQSPKLLIYWASTRESGVPDRFTASGSGTDFTLTISSVKAEDLAVYYCQQYYRSPLTFGAGTKLELK
B6: 142F7 (mouse monoclonal antibody) (antibody, V domains shown)
VH: EVQLEQSGAELVRPGTSVKVSCKASGYAFTNYLIEWGIQRPGQGLEWIGVINPGTGGTNYNEKFKDKATLTTDKSSSTAYMQLSSLTSDDSAVYFCARGGSGFAYWGQGTLVTVSA
VL: DIVLTQTTSSLSASLGDRVTISCRASQDINNYLNWYQQKPDGTVKLLIYYTSRLHSGVPSRFSGSGSGTDYSLTISNLEQEDIATYFCQQGNTLPWTFGGGTKLEIK

biological target: T3, human CD40 expressed on cells (human, UniProt P25942 21-277); assay: cell-based or functional assay
T3 sequence (P25942 21-277 limits assumed): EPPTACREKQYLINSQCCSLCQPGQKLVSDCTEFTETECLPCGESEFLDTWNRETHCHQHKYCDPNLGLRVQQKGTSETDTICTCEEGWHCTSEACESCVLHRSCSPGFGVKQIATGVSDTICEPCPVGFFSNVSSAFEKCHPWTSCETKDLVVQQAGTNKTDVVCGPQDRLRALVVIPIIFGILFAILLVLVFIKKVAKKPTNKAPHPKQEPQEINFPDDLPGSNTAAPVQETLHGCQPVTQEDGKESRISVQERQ

| Binder | HEK Blue EC50 [µg/mL] |
| --- | --- |
| B1 | 0.0223 |
| B2 | 0.0261 |
| B3 | 0.264 |
| B4 | 0.0422 |
| B5 | 0.14 |
| B6 | 0.0648 |

biological target: T4, mouse CD40-hFc (mouse, UniProt P27512 20-193); assay: ELISA, muCD40-hFc coated
T4 construct: Bought protein; also called muCD40-hFc
T4 sequence (P27512 20-193): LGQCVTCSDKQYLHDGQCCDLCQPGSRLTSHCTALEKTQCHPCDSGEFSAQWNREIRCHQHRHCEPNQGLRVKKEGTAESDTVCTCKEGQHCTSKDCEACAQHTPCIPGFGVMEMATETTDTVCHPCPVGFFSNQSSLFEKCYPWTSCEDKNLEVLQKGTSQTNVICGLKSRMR

| Binder | binding result |
| --- | --- |
| B1 | no binding |
| B2 | no binding |
| B3 | no binding |
| B4 | no binding |
| B5 | no binding |
| B6 | no binding |

biological target: T5, recombinant human CD40 (ECD)-his (human, UniProt P25942 21-193); assay: ELISA, hCD40(ECD)-his coated
T5 construct: Bought protein; also called hCD40(ECD)-his; TNFRSF5
T5 sequence (P25942 21-193): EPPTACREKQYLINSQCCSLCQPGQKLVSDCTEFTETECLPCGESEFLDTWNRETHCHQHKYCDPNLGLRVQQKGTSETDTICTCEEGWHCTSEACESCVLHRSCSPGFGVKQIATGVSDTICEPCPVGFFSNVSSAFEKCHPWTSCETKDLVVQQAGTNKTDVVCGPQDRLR
Protocol: (§1) ELISA plates were coated with 500 ng/ml human CD40 (ECD)-his (Sino Biological, CN, Cat #: 10774-H08H) at 4° C. overnight. The wells were blocked with 200 μl of blocking buffer (PBS containing 1% BSA, 1% goat serum, and 0.05% Tween 20) for 2 hours at room temperature, and then 100 μl of serially diluted anti-CD40 antibodies (starting from 40000 ng/ml) were added to each well and incubated for 1 hour at RT. Plates were washed for 3 times with PBST (PBS+0.05% Tween 20), added with Goat-anti-mouse IgG-HRP (Simga, US, Cat #: A9309-1 ml) diluted 5000×, and incubated for 1 hour at RT. Plates were developed with freshly prepared Ultra-TMB (BD, US, Cat #: 555214) for 5 minutes at RT. Absorbance was read on a SpectraMax® i3X (Molecular Devies, US) at 450 nm.

| Binder | EC50 [µg/mL] |
| --- | --- |
| B1 | 0.0214 |
| B2 | 0.0153 |
| B3 | 0.0291 |
| B4 | 0.0155 |
| B5 | 0.0318 |
| B6 | 0.0171 |

Biological target: T1, rhesus CD40 expressed on HEK293A cells
Assay: FACS, HEK293A/rhesusCD40 cells
Protocol: (§2) Example 5 Mouse Anti-CD40 Monoclonal Antibodies Bound to Human and Rhesus CD40 Expressed on HEK293A Cells To further determine whether anti-CD40 antibodies bound to human, monkey or mouse CD40 expressed on HEK293A cells, a cell-based binding assay by FACS was performed using the HEK293A cells stably overexpressing human, monkey or mouse CD40 as generated in Example 1, respectively. Briefly, 10^5 HEK293A cells were seeded into each well of the 96-well plates and serially diluted anti-CD40 antibodies were added to the plates. After incubated at 4° C. for 1 hour, plates were washed 3 times with PBST. Then, an APC coupled Goat Anti-Mouse IgG (BioLegen, US, Cat #: 405308) diluted 500× was added to the plates. After incubation at 4° C. for 1 hour, the plates were washed with PBS for 3 times and then cell fluorescence was monitored using a FACS machine (BD).

| Binder | EC50 [µg/mL] |
| --- | --- |
| B1 | 0.117 |
| B2 | 0.0159 |
| B3 | 0.13 |
| B4 | 0.137 |
| B5 | 0.184 |
| B6 | 0.0807 |

Biological target: T2, recombinant rhesus CD40 (ECD)-hFc
Assay: ELISA, rhCD40(ECD)-hFc coated
Protocol: as §1
Species-cross-reactivity of the 20 CD40 mAbs to monkey or mouse CD40 was further assessed by direct ELISA. Briefly, 500 ng/ml monkey CD40 (ECD)-hFc (Sino Biological, CN, Cat #: 90097-C02H) or mouse CD40-hFc (Sino Biological, CN, Cat #: 50324-M03H) was coated on 96-well ELISA plates followed by incubation with 100 μl of serially diluted anti-CD40 antibodies (starting from 40000 ng/ml). Goat anti-mouse IgG conjugated with HRP (Sigma, US, Cat #: A9309-1ml) was used then.

| Binder | EC50 [µg/mL] |
| --- | --- |
| B1 | 0.0206 |
| B2 | 0.0152 |
| B3 | 0.0365 |
| B4 | 0.016 |
| B5 | 0.0302 |
| B6 | 0.0201 |

biological target: T3, human CD40 expressed on cells; assay: FACS, HEK293A/humanCD40 cells
Protocol: as §2

| Binder | EC50 [µg/mL] |
| --- | --- |
| B1 | 0.033 |
| B2 | 0.0101 |
| B3 | 0.0779 |
| B4 | 0.134 |
| B5 | 0.203 |
| B6 | 0.0155 |

biological target: T6, mouse CD40 expressed on HEK293A cells (mouse, UniProt P27512 20-289); assay: FACS, HEK293A/mouseCD40 cells
T6 construct: also called HEK293A/mouseCD40
T6 sequence (P27512 20-289 limits assumed): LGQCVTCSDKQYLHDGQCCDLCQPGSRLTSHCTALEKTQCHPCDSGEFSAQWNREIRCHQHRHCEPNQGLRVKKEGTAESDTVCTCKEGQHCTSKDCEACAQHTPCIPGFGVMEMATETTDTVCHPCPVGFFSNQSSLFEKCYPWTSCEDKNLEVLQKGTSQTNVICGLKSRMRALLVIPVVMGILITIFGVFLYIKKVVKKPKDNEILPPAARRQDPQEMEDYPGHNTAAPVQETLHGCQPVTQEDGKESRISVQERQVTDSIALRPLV

| Binder | binding result |
| --- | --- |
| B1 | no binding |
| B2 | no binding |
| B3 | no binding |
| B4 | no binding |
| B5 | no binding |
| B6 | no binding |
